# Values of other authors in article PMC13312411.
# Like-named read-outs stand apart in the source and are kept apart here.
# What was measured:
# [1] = biological target: Hsc70 (Homo sapiens) (UniProt P11142)
# [2] = biological target: Hsc70 (Homo sapiens) (UniProt P11142); remark: listed apart in the source
# Chain of UniProt P11142 (P11142 2-646): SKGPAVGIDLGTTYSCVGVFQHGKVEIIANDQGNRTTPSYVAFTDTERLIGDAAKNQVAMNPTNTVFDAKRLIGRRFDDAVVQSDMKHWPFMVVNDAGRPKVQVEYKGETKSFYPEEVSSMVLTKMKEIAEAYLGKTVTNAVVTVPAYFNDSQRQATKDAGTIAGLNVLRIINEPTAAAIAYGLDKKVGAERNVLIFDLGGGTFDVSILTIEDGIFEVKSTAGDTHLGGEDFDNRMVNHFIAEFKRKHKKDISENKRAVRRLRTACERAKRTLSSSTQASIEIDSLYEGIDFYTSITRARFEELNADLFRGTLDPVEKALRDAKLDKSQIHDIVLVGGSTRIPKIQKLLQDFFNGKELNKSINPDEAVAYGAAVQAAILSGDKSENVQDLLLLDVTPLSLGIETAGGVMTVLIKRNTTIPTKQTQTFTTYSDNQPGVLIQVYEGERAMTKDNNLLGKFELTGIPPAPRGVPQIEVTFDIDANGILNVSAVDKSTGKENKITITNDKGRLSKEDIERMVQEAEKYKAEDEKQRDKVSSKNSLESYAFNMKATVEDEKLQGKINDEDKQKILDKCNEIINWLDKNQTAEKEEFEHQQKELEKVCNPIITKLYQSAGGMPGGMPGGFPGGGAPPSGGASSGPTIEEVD
Kd [1] [µM],Kd [2] [µM],Substance
3,,DNAJB6 J-domain JD (from UniProt O75190)
,400,DNAJB6 JD-GF (open) JD-GF (from UniProt O75190)
